Consider 2 substances from paper PMC2188260.

Like-named read-outs stand apart in the source and are kept apart here.

Experiment in all cases: co-IP
Assay [1] addresses gelsolin of rabbit lung macrophages (rabbit (endogenous in lung macrophages)).
For assay [2] the target is unchanged. The source holds these as a separate data set.
Assay [3] has the same target. The source holds these as a separate data set.
Assay [4] has as its target human plasma gelsolin (human) (UniProt P06396).

Chain of human plasma gelsolin (human) (P06396 28-782): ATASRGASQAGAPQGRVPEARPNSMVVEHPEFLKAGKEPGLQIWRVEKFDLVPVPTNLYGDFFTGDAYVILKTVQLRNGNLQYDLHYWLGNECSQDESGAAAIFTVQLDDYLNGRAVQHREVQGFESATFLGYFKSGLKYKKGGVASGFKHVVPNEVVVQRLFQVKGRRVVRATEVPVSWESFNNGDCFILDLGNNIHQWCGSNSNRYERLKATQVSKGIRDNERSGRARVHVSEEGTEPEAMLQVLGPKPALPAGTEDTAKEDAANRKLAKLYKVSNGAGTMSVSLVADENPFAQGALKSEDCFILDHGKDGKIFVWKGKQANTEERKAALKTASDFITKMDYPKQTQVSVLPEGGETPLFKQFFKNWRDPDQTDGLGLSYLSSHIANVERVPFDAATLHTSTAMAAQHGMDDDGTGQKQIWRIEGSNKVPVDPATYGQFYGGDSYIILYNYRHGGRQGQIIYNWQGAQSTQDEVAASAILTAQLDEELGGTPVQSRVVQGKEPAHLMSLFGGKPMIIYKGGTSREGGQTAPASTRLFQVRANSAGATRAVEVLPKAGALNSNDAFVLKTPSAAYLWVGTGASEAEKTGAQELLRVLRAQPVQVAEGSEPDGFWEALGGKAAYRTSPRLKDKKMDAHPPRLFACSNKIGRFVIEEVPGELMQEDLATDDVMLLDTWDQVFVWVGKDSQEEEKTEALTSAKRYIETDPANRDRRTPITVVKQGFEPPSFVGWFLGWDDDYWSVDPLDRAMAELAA

As for “actin of rabbit lung macrophages (from UniProt P29751 1-375) (natural protein)”, in assay [1], the molar ratio of actin to gelsolin on the beads (actin per gelsolin) worked out at 0.5; the percent of gelsolin complexed with actin was determined as 50%; the percent of gelsolin in the EGTA-resistant complex (cells in suspension, 0 min) amounted to 20%; the percent of gelsolin in the EGTA-resistant complex (cells in suspension, 30 min) is 90%. In assay [1], the percent of total gelsolin complexed to actin (1 uM ionomycin, 30 s) was determined as 80%; the percent of total gelsolin complexed to actin (before ionomycin) is 50%; the percentage of gelsolin in an EGTA-resistant complex (DMSO, experiment 1) was 32%; the percentage of gelsolin in an EGTA-resistant complex (DMSO, experiment 2) is 34%. In assay [1], the percentage of gelsolin in an EGTA-resistant complex (DMSO, experiment 3) worked out at 51%; the percentage of gelsolin in an EGTA-resistant complex (DMSO, experiment 4) came out at 35%; the percentage of gelsolin in an EGTA-resistant complex (DMSO, mean value) was 38%; the percentage of gelsolin in an EGTA-resistant complex (FMLP, experiment 1) turned out to be 23%. Besides, in assay [1], the percentage of gelsolin in an EGTA-resistant complex (FMLP, experiment 2) is 24%; the percentage of gelsolin in an EGTA-resistant complex (FMLP, experiment 3) was found to be 25%; the percentage of gelsolin in an EGTA-resistant complex (FMLP, experiment 4) worked out at 26%; the percentage of gelsolin in an EGTA-resistant complex (FMLP, mean value) turned out to be 25%. Besides, in assay [1], the percentage of gelsolin in an EGTA-resistant complex (no addition, experiment 1) worked out at 43%; the percentage of gelsolin in an EGTA-resistant complex (no addition, experiment 2) was determined as 40%; the percentage of gelsolin in an EGTA-resistant complex (no addition, experiment 3) was 51%; the percentage of gelsolin in an EGTA-resistant complex (no addition, experiment 4) was 47%. Besides, the percentage of gelsolin in an EGTA-resistant complex (no addition, mean value) in assay [1] is 45%. In assay [2], the molar ratio of actin to gelsolin on the beads (actin per gelsolin) was 1 and the percent of gelsolin complexed with actin was 100%. Also, the molar ratio of actin to gelsolin on the beads (actin per gelsolin) in assay [3] was found to be 4.
In assay [4], “rabbit skeletal muscle actin (from UniProt P68135 1-377) (natural protein)” yielded a stoichiometry N (actin per gelsolin) of 1.
